One block for each substance: values may come before it.
Assays:
Assay in all cases: cell-based or functional assay
GAL4/HIF 1-813 (human) = target: GAL4/HIF 1-813 (human)
GAL4/HIF 1-826 (human) = target: GAL4/HIF 1-826 (human)
GAL4/HIF 526-826 (human) = target: GAL4/HIF 526-826 (human)
GAL4/HIF 531-584 (human) = target: GAL4/HIF 531-584 (human)
GAL4/HIF 71-826 (human) = target: GAL4/HIF 71-826 (human)
GAL4/HIF 776-826 (human) = target: GAL4/HIF 776-826 (human)
[1] = target: GFP-HIF-1α (Aequeora victoria; human) [GFP: P42212]
human HIF-1α (human) = human HIF-1α (human) (UniProt Q16665)
Chain of human HIF-1α (human) (Q16665 whole entry, the tested form may be a part): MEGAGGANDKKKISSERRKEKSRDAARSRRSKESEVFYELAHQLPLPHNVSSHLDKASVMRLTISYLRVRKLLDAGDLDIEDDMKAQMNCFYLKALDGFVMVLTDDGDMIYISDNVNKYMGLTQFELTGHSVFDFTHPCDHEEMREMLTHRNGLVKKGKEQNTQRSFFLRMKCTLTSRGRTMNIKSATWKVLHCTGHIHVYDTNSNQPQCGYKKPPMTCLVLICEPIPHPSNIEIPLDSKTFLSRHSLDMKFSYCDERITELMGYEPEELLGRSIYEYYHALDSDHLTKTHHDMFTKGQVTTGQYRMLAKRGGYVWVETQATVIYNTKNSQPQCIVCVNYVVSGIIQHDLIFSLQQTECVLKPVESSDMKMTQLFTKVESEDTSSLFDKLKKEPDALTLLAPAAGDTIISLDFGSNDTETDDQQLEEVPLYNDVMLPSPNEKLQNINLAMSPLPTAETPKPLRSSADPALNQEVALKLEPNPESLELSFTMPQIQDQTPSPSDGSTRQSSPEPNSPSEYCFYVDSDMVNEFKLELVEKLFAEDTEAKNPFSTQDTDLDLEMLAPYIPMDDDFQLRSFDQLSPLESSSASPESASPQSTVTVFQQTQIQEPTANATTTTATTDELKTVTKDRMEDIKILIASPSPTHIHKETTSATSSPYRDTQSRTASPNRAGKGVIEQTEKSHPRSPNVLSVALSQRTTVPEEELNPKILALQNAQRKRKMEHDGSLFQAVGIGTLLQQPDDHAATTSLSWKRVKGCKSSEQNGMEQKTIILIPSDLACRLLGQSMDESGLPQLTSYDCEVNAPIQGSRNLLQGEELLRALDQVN

GAL4/Arnt 128-603 = GAL4/Arnt 128-603 (UniProt P04386)
GAL4/Arnt 128-774 = GAL4/Arnt 128-774 (UniProt P04386)

GAL4-responsive reporter gene activity in COS7 cells, hypoxia (GAL4/HIF 1-813 (human)): 14 fold
GAL4-responsive luciferase reporter gene activity in COS7 cells, hypoxia (GAL4/HIF 1-826 (human)): 19 fold
GAL4-responsive luciferase reporter gene activity in COS7 cells, normoxia (GAL4/HIF 1-826 (human)): 2 to 3 fold
GAL4-responsive reporter gene activity in COS7 cells, hypoxia (GAL4/HIF 1-826 (human)): 8 to 10 fold
GAL4-responsive reporter gene activity in COS7 cells (GAL4/HIF 526-826 (human)): 7 to 9 fold
GAL4-responsive reporter gene activity in COS7 cells, hypoxia (GAL4/HIF 531-584 (human)): 11 fold
GAL4-responsive luciferase activity in COS7 cells, hypoxia, against hypoxia without exogenous coactivators (GAL4/HIF 71-826 (human)): 30 fold
GAL4-responsive reporter gene activity in COS7 cells (GAL4/HIF 776-826 (human)): 29 fold
HRE-luciferase reporter gene activity in COS7 cells, hypoxia [1]: 3 fold
HRE-luciferase reporter gene activity in COS7 cells, hypoxia over normoxia [1]: 15 fold
pT81/HRE-luc reporter gene activity in COS7 cells coexpressing HIF-1α and Arnt, hypoxia (human HIF-1α (human)): 2 to 3 fold
Substance: CBP (full-length mouse CBP) (from UniProt P45481 1-2441)

GAL4-responsive reporter gene activity in COS7 cells, hypoxia, Ref-1 coexpressed with CBP and SRC-1 (GAL4/HIF 531-584 (human)): 12 fold
GAL4-responsive reporter gene activity in COS7 cells, hypoxia, Ref-1 coexpressed with CBP and SRC-1 (GAL4/HIF 776-826 (human)): 53 fold
Substance: Ref-1 (from UniProt P27695 1-318) (enzyme)

pT81/HRE-luc reporter gene activity in COS7 cells coexpressing HIF-1α and Arnt, hypoxia over normoxia (human HIF-1α (human)): 12 fold
Substance: TIF2 (from UniProt Q15596 1-1464)

GAL4-responsive reporter gene activity in COS7 cells, normoxia (GAL4/Arnt 128-603): 5 fold
GAL4-responsive reporter gene activity in COS7 cells, normoxia (GAL4/Arnt 128-774): 4 fold
Substance: human HIF-1α (from UniProt Q16665 1-826)

Source: US6436654
